Reference: paper PMC6586363

Target: recombinant human PKM2, wild type (human) (UniProt P14618)
Test: native gel or EMSA; blue native gel electrophoresis of recombinant PKM2 (WT or mutant) or PKM1, alone or with FBP and/or scFv 5; resolves dimer and tetramer forms

Sequence of recombinant human PKM2, wild type, P14618 1-531 (enzyme; other documents disagree on this pair) (P14618 whole entry): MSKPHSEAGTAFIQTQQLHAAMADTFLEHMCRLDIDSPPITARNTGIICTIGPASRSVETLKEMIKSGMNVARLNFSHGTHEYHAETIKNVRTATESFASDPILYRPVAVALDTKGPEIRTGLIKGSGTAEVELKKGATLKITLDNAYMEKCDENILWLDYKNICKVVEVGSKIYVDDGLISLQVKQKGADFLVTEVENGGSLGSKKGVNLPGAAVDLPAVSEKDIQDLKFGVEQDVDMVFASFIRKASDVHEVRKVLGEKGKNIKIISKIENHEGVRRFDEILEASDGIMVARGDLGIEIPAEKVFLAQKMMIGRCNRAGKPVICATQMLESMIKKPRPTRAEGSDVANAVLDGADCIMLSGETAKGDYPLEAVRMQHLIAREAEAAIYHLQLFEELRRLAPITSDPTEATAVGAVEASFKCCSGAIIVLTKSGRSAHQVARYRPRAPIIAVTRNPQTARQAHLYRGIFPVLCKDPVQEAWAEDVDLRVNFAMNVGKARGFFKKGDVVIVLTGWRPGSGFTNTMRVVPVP

stoichiometry N: 2
Substance: recombinant human PKM2, wild type, P14618 1-531 (enzyme; other documents disagree on this pair)
